Columns and labels:
Test in all cases: holdup assay
Design in all cases: key: below the threshold = too weak to quantify, mostly under pKd 3.1 to 4
[1] = biological target: T1, APBA3_1, O96018
T1 sequence (O96018 389-490, limits assumed, looked up): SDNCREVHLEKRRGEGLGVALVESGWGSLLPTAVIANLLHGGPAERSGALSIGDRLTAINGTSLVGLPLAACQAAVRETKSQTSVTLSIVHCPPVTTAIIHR

[2] = biological target: T2, ARHGAP21, Q5T5U3
T2 sequence (Q5T5U3 45-169, limits assumed, looked up): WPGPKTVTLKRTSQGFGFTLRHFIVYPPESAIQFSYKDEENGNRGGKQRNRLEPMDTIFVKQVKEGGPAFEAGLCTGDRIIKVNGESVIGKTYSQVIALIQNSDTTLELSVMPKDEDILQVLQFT

[3] = biological target: T3, DFNB31_2, Q9P202
T3 sequence (Q9P202 274-371, limits assumed, looked up): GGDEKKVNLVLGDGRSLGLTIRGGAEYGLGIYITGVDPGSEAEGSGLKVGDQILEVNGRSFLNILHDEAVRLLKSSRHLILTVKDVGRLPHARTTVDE

[4] = biological target: DLG1_2, Q12959
Chain of DLG1_2, Q12959 (Q12959 314-412): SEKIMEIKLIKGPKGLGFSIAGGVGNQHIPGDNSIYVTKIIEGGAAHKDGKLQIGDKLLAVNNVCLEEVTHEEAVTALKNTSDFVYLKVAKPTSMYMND

[5] = biological target: T4, DLG3_3, Q92796
T4 sequence (Q92796 374-475, limits assumed, looked up): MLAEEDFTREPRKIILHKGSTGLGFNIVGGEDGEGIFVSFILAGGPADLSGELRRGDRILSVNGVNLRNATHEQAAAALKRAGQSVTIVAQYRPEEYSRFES

[6] = biological target: DLG4_1, P78352
Chain of DLG4_1, P78352 (P78352 62-152): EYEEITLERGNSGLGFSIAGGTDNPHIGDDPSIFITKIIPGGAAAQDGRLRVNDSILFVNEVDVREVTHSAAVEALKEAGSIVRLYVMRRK

[7] = biological target: DLG4_2, P78352
Chain of DLG4_2, P78352 (P78352 155-259): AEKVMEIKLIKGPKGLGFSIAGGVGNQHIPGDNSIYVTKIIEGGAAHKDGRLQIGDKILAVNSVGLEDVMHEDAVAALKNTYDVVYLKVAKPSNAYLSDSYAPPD

[8] = biological target: DLG4_3, P78352
Chain of DLG4_3, P78352 (P78352 306-403): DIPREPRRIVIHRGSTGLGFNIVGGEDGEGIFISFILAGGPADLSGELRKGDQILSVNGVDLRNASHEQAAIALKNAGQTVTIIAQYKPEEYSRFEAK

[9] = biological target: DLG5_1, Q8TDM6
Chain of DLG5_1, Q8TDM6 (Q8TDM6 617-713): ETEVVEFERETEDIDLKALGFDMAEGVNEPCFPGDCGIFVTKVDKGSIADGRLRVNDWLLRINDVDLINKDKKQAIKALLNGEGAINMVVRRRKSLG

[10] = biological target: FRMPD2_2, Q68DX3
Chain of FRMPD2_2, Q68DX3 (Q68DX3 944-1038): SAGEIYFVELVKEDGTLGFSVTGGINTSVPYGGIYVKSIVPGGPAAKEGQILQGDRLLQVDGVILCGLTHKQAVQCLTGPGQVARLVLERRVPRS

[11] = biological target: FRMPD4, Q14CM0
Chain of FRMPD4, Q14CM0 (Q14CM0 67-160): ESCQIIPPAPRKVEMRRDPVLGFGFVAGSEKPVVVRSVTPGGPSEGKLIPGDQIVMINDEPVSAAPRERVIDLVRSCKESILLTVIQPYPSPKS

[12] = biological target: GIPC2, Q8TF65
Chain of GIPC2, Q8TF65 (Q8TF65 112-203): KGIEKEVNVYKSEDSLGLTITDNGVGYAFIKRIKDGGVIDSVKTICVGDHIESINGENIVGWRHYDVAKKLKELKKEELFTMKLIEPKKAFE

[13] = biological target: GORASP2, Q9H8Y8
[14] = biological target: GRIP2_3, Q9C0E4
Chain of GRIP2_3, Q9C0E4 (Q9C0E4 238-339): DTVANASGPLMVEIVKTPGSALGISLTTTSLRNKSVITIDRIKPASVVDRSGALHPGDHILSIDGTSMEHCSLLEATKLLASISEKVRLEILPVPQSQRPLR

[15] = biological target: GRIP2_6, Q9C0E4
Chain of GRIP2_6, Q9C0E4 (Q9C0E4 648-740): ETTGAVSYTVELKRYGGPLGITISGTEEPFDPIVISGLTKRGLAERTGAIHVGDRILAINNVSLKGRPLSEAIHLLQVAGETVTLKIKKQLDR

[16] = biological target: LNX1_2, Q8TBB1
Chain of LNX1_2, Q8TBB1 (Q8TBB1 371-470): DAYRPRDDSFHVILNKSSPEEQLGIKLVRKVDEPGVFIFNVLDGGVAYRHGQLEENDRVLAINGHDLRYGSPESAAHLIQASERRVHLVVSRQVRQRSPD

[17] = biological target: T5, LNX2_3, Q8N448
T5 sequence (Q8N448 463-564, limits assumed, looked up): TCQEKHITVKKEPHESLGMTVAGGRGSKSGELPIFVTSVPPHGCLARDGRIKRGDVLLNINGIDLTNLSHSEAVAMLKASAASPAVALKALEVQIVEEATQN

[18] = biological target: T6, LRRC7, Q96NW7
T6 sequence (Q96NW7 1440-1537, limits assumed, looked up): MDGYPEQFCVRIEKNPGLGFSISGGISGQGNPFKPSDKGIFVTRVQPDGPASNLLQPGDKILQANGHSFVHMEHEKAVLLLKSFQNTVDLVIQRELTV

[19] = biological target: MAGI3_2, Q5TCQ9
Chain of MAGI3_2, Q5TCQ9 (Q5TCQ9 398-503): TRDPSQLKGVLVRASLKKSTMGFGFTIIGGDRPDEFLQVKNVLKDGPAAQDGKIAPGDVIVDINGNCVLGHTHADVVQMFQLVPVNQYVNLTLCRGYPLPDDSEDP

[20] = biological target: MAST2, Q6P0Q8
Chain of MAST2, Q6P0Q8 (Q6P0Q8 1099-1202): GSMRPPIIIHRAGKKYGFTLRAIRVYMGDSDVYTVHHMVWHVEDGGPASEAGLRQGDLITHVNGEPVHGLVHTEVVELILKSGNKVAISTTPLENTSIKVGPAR

[21] = biological target: T7, NHERF3_1, Q5T2W1
T7 sequence (Q5T2W1 4-100, limits assumed, looked up): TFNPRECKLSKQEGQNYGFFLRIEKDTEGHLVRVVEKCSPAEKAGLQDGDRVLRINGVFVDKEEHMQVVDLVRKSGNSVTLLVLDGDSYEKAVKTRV

[22] = biological target: T8, NHERF3_4, Q5T2W1
T8 sequence (Q5T2W1 373-468, limits assumed, looked up): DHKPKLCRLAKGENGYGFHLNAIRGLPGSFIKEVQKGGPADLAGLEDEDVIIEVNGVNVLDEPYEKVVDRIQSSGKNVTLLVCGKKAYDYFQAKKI

[23] = biological target: NHERF4_4, Q86UT5
Chain of NHERF4_4, Q86UT5 (Q86UT5 464-550): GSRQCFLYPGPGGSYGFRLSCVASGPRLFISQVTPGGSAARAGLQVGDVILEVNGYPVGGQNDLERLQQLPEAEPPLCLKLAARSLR

[24] = biological target: T9, RHPN1, Q8TCX5
T9 sequence (Q8TCX5 508-602, limits assumed, looked up): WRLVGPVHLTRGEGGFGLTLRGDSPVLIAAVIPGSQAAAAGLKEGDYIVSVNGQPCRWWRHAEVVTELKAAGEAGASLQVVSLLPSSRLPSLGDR

[25] = biological target: SCRIB_1, Q14160
Chain of SCRIB_1, Q14160 (Q14160 718-814): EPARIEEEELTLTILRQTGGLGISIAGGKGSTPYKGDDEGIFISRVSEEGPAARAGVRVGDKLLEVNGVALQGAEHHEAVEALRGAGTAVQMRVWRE

[26] = biological target: SNX27, Q96L92
[27] = biological target: T10, SYNJ2BP, P57105
T10 sequence (P57105 8-110, limits assumed, looked up): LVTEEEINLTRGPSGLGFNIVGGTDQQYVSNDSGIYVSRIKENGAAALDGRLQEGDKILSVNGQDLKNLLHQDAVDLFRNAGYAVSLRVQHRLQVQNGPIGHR

[28] = plain residues with an end cap or a label only (N-terminal biotin on a linker: ado-ado)
[29] = plain residues with an end cap or a label only (N-terminal biotin on a linker: ahx)

With SQDPKKPSRV [CBY2, Q8NA61] the pKd [1, 28] was “below the threshold”, the pKd [2, 28] was 4.04 and the pKd [3, 28] was “below the threshold”. For the same binder, the pKd [4, 28] was “below the threshold”, the pKd [5, 28] was “below the threshold” and the pKd [6, 28] was 3.66. The pKd [7, 28] was 3.49, the pKd [8, 28] was “below the threshold” and the pKd [9, 28] was “below the threshold”. The pKd [10, 28] was “below the threshold”, the pKd [11, 28] was “below the threshold” and the pKd [12, 28] was “below the threshold”. For the same binder, the pKd [13, 28] was “below the threshold”, the pKd [14, 28] was “below the threshold” and the pKd [15, 28] was “below the threshold”. For the same binder, the pKd [16, 28] was “below the threshold”, the pKd [17, 28] was “below the threshold” and the pKd [18, 28] was “below the threshold”. For the same binder, the pKd [19, 28] was 4.44, the pKd [20, 28] was “below the threshold” and the pKd [21, 28] was “below the threshold”. For the same binder, the pKd [22, 28] was “below the threshold”, the pKd [23, 28] was 3.67 and the pKd [24, 28] was “below the threshold”. The pKd [25, 28] was “below the threshold”, the pKd [26, 28] was 3.67 and the pKd [27, 28] was 3.66.

HSATSVHTSV [MTMR1, Q13613] was tested, and the pKd [1, 29] was “below the threshold”, the pKd [2, 29] was 3.49 and the pKd [3, 29] was “below the threshold”. The pKd [4, 29] was 4.9, the pKd [5, 29] was 3.68 and the pKd [6, 29] was 4.21. The pKd [7, 29] was 4.7, the pKd [8, 29] was “below the threshold” and the pKd [9, 29] was “below the threshold”. For the same binder, the pKd [10, 29] was “below the threshold”, the pKd [11, 29] was “below the threshold” and the pKd [12, 29] was “below the threshold”. The pKd [13, 29] was “below the threshold”, the pKd [14, 29] was “below the threshold” and the pKd [15, 29] was “below the threshold”. The pKd [16, 29] was “below the threshold”, the pKd [17, 29] was “below the threshold” and the pKd [18, 29] was “below the threshold”. The pKd [19, 29] was 3.59, the pKd [20, 29] was 4.38 and the pKd [21, 29] was “below the threshold”. For the same binder, the pKd [22, 29] was “below the threshold”, the pKd [23, 29] was “below the threshold” and the pKd [24, 29] was 4.09. For the same binder, the pKd [25, 29] was 3.79, the pKd [26, 29] was 3.96 and the pKd [27, 29] was 4.42.
